Test results from the supplement of paper PMC5998384.

Experiments:
HeLa Kyoto [1] = experiment: solubility in G1/S (NP-40 vs SDS abundance) (log2 ratio); higher = more soluble; settings: cell cycle stage: G1/S
HeLa Kyoto [2] = experiment: solubility change mitosis vs G1/S (difference of NP-40 vs SDS log2 ratios) (log2 ratio difference); higher = more soluble in mitosis
HeLa Kyoto [3] = experiment: melting temperature (median over replicates), in situ; higher = more thermally stable
HeLa Kyoto [4] = experiment: thermal stability score vs G1/S (z-score of summed log2 fold changes over temperatures); higher = more thermally stable than in G1/S
[5] = cell cycle stage: early G1 (4.5 h after nocodazole release)
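Throughout, for melting temperature (median over replicates), in situ: HeLa Kyoto cells synchronized by double thymidine or nocodazole block, proteins quantified by TMT10plex mass spectrometry, three independent biological replicates.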
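Throughout, for solubility change mitosis vs G1/S (difference of NP-40 vs SDS log2 ratios): synchronized HeLa Kyoto cells (double thymidine block for G1/S, nocodazole release for mitosis), protein amounts in NP-40 versus SDS lysates quantified by mass spectrometry, three biological replicates.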
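Throughout, for solubility in G1/S (NP-40 vs SDS abundance): HeLa Kyoto cells arrested at G1/S by double thymidine block, proteins quantified by TMT10plex mass spectrometry in mild NP-40 versus SDS extracts, three biological replicates.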
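Throughout, for thermal stability score vs G1/S (z-score of summed log2 fold changes over temperatures): synchronized HeLa Kyoto cells, proteins quantified by TMT10plex mass spectrometry, three biological replicates, mitosis taken 0.5 h after nocodazole release, G1/S directly after double thymidine block.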

## MAATRSPTRARERERSGAPAAGSDQVHSWMLATSQALDTVWRMAKGFVMLAVSFLVAAICYFRRLHLYSGHKLKWWIGYLQRKFKRNLSVEAEVDLLSYCAREWKGETPRNKLMRKAYEELFWRHHIKCVRQVRRDNYDALRSVLFQIFSQGISFPSWMKEKDIVKLPEKLLFSQGCNWIQQYSFGPEKYTGSNVFGKLRKYVELLKTQWTEFNGIRDYHKRGSMCNTLFSDAILEYKLYEALKFIMLYQVTEVYEQMKTKKVIPSLFRLLFSRETSSDPLSFMMNHLNSVGDTCGLEQIDMFILGYSLEVKIKVFRLFKFNSRDFEVCYPEEPLRDWPEISLLTENDRHYHIPVF [FAM105A]
HeLa Kyoto [1]
  solubility in G1/S (log2): -0.437
HeLa Kyoto [2]
  solubility change mitosis (log2): -0.0882
HeLa Kyoto [3]; cell cycle stage: mitosis
  melting temperature: 52.7 °C
HeLa Kyoto [4]; [5]
  thermal stability score: -0.702
HeLa Kyoto [4]; cell cycle stage: mitosis
  thermal stability score: -1.45

## MAATSLMSALAARLLQPAHSCSLRLRPFHLAAVRNEAVVISGRKLAQQIKQEVRQEVEEWVASGNKRPHLSVILVGENPASHSYVLNKTRAAAVVGINSETIMKPASISEEELLNLINKLNNDDNVDGLLVQLPLPEHIDERRICNAVSPDKDVDGFHVINVGRMCLDQYSMLPATPWGVWEIIKRTGIPTLGKNVVVAGRSKNVGMPIAMLLHTDGAHERPGGDATVTISHRYTPKEQLKKHTILADIVISAAGIPNLITADMIKEGAAVIDVGINRVHDPVTAKPKLVGDVDFEGVRQKAGYITPVPGGVGPMTVAMLMKNTIIAAKKVLRLEEREVLKSKELGVATN [MTHFD2]
HeLa Kyoto [1]
  solubility in G1/S (log2): 0.505
HeLa Kyoto [2]
  solubility change mitosis (log2): -0.0584
HeLa Kyoto [3]; cell cycle stage: G1/S
  melting temperature: 52.5 °C
HeLa Kyoto [3]; cell cycle stage: mitosis
  melting temperature: 53.3 °C
HeLa Kyoto [4]; [5]
  thermal stability score: 0.31
HeLa Kyoto [4]; cell cycle stage: mitosis
  thermal stability score: -0.889

## MAAVAALQLGLRAAGLGRAPASAAWRSVLRVSPRPGVAWRPSRCGSSAAEASATKAEDDSFLQWVLLLIPVTAFGLGTWQVQRRKWKLNLIAELESRVLAEPVPLPADPMELKNLEYRPVKVRGCFDHSKELYMMPRTMVDPVREAREGGLISSSTQSGAYVVTPFHCTDLGVTILVNRGFVPRKKVNPETRQKGQIEGEVDLIGMVRLTETRQPFVPENNPERNHWHYRDLEAMARITGAEPIFIDANFQSTVPGGPIGGQTRVTLRNEHLQYIVTWYGLSAATSYLWFKKFLRGTPGV [SURF1]
HeLa Kyoto [1]
  solubility in G1/S (log2): 0.298
HeLa Kyoto [2]
  solubility change mitosis (log2): -0.105
HeLa Kyoto [3]; cell cycle stage: G1/S
  melting temperature: 52.2 °C
HeLa Kyoto [3]; cell cycle stage: mitosis
  melting temperature: 52.2 °C
HeLa Kyoto [4]; [5]
  thermal stability score: -0.638
HeLa Kyoto [4]; cell cycle stage: mitosis
  thermal stability score: -0.542

## MAAVAATAAAKGNGGGGGRAGAGDASGTRKKKGPGPLATAYLVIYNVVMTAGWLVIAVGLVRAYLAKGSYHSLYYSIEKPLKFFQTGALLEILHCAIGIVPSSVVLTSFQVMSRVFLIWAVTHSVKEVQSEDSVLLFVIAWTITEIIRYSFYTFSLLNHLPYLIKWARYTLFIVLYPMGVSGELLTIYAALPFVRQAGLYSISLPNKYNFSFDYYAFLILIMISYIPIFPQLYFHMIHQRRKILSHTEEHKKFE [HACD2]
HeLa Kyoto [1]
  solubility in G1/S (log2): -0.368
HeLa Kyoto [2]
  solubility change mitosis (log2): 0.15
HeLa Kyoto [3]; cell cycle stage: G1/S
  melting temperature: 54.2 °C
HeLa Kyoto [3]; cell cycle stage: mitosis
  melting temperature: 55.4 °C
HeLa Kyoto [4]; [5]
  thermal stability score: 0.894
HeLa Kyoto [4]; cell cycle stage: mitosis
  thermal stability score: -0.449

## MAAVDSFYLLYREIARSCNCYMEALALVGAWYTARKSITVICDFYSLIRLHFIPRLGSRADLIKQYGRWAVVSGATDGIGKAYAEELASRGLNIILISRNEEKLQVVAKDIADTYKVETDIIVADFSSGREIYLPIREALKDKDVGILVNNVGVFYPYPQYFTQLSEDKLWDIINVNIAAASLMVHVVLPGMVERKKGAIVTISSGSCCKPTPQLAAFSASKAYLDHFSRALQYEYASKGIFVQSLIPFYVATSMTAPSNFLHRCSWLVPSPKVYAHHAVSTLGISKRTTGYWSHSIQFLFAQYMPEWLWVWGANILNRSLRKEALSCTA [HSDL1]
HeLa Kyoto [1]
  solubility in G1/S (log2): -0.127
HeLa Kyoto [2]
  solubility change mitosis (log2): -0.155
HeLa Kyoto [3]; cell cycle stage: G1/S
  melting temperature: 57.5 °C
HeLa Kyoto [3]; cell cycle stage: mitosis
  melting temperature: 54.3 °C
HeLa Kyoto [4]; [5]
  thermal stability score: -1.62
HeLa Kyoto [4]; cell cycle stage: mitosis
  thermal stability score: -2.08
